Here are results for one sequence from US5686574.

The data set concerns TR/CAR chimera (TR beta A/B and C domains fused to CAR D, E, F domains). The data set is described as follows: cell_activity. The note with it: no ligand, charcoal-stripped serum; JEG3 cells.

Where only a bound is given, the exact number is not on record here.

“AAAGGTAAGATCAGGGACGTGACCGCAG (double strand) [T3RE]” registered an activity (% of TR beta response) greater than 50.
